Source: PMC6611904, “The transcription factor OsSUF4 interacts with SDG725 in promoting H3K36me3 establishment”

What was measured:
His-OsSUF4N = His-OsSUF4N (Oryza sativa, UniProt Q653D5 1-105); assay: EMSA; ITC: 100 mM NaCl, 20 mM Tris-HCl pH 8.0, 25 C, 2 mM protein into 0.1 mM DNA; EMSA: LightShift kit binding buffer, 5 ug protein, 0.02 uM probe, poly(dI-dC), 25 C 30 min, 5% PAGE; details: protein: recombinant; tags: His (pET32a)
OsSUF4 ZF K36A = OsSUF4 ZF K36A (Oryza sativa, UniProt Q653D5 10-100, K36A); assay: ITC; ITC: 100 mM NaCl, 20 mM Tris-HCl pH 8.0, 25 C, 2 mM protein into 0.1 mM DNA; EMSA: LightShift kit binding buffer, 5 ug protein, 0.02 uM probe, poly(dI-dC), 25 C 30 min, 5% PAGE; details: protein: recombinant; tags: pET28-SUMO; Ni column; blunt
Sequence of OsSUF4 ZF K36A (Q653D5 entry or part of it K36A | K36A K36A): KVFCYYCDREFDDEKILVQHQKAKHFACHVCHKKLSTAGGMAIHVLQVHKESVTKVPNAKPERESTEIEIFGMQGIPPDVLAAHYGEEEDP

OsSUF4 ZF K33A = OsSUF4 ZF K33A (Oryza sativa, UniProt Q653D5 10-100, K33A); assay: as above; details: protein: recombinant; tags: pET28-SUMO; Ni column; blunt
Sequence of OsSUF4 ZF K33A (Q653D5 entry or part of it K33A | K33A K33A): as the sequence (Q653D5 entry or part of it K36A | K36A K36A) above, with K24A, A27K counted along it

[1] = target: OsSUF4 zinc finger domain WT (Oryza sativa, UniProt Q653D5 10-100); assay: as above; details: protein: recombinant; tags: pET28-SUMO; Ni column; blunt
Sequence of OsSUF4 zinc finger domain WT (Q653D5 entry or part of it): as the sequence (Q653D5 entry or part of it K36A | K36A K36A) above, with A27K counted along it

OsSUF4 ZF K31A = OsSUF4 ZF K31A (Oryza sativa, UniProt Q653D5 10-100, K31A); assay: as above; details: protein: recombinant; tags: pET28-SUMO; Ni column; blunt
Sequence of OsSUF4 ZF K31A (Q653D5 entry or part of it K31A | K31A K31A): as the sequence (Q653D5 entry or part of it K36A | K36A K36A) above, with K22A, A27K counted along it

OsSUF4 ZF K43A = OsSUF4 ZF K43A (Oryza sativa, UniProt Q653D5 10-100, K43A); assay: as above; details: protein: recombinant; tags: pET28-SUMO; Ni column; blunt
Sequence of OsSUF4 ZF K43A (Q653D5 entry or part of it K43A | K43A K43A): as the sequence (Q653D5 entry or part of it K36A | K36A K36A) above, with A27K, K34A counted along it

OsSUF4 ZF K24A = OsSUF4 ZF K24A (Oryza sativa, UniProt Q653D5 10-100, K24A); assay: as above; details: protein: recombinant; tags: pET28-SUMO; Ni column; blunt
Sequence of OsSUF4 ZF K24A (Q653D5 entry or part of it K24A | K24A K24A): as the sequence (Q653D5 entry or part of it K36A | K36A K36A) above, with K15A, A27K counted along it

OsSUF4 ZF 4m = OsSUF4 ZF 4m (Oryza sativa, UniProt Q653D5 10-100, R18A;K33A;K36A;K43A); assay: as above; details: protein: recombinant; tags: pET28-SUMO; Ni column; blunt
Sequence of OsSUF4 ZF 4m (Q653D5 entry or part of it R18A;K33A;K36A;K43A): as the sequence (Q653D5 entry or part of it K36A | K36A K36A) above, with R9A, K24A, K34A counted along it

OsSUF4 ZF R18A = OsSUF4 ZF R18A (Oryza sativa, UniProt Q653D5 10-100, R18A); assay: as above; details: protein: recombinant; tags: pET28-SUMO; Ni column; blunt
Sequence of OsSUF4 ZF R18A (Q653D5 entry or part of it R18A | R18A R18A): as the sequence (Q653D5 entry or part of it K36A | K36A K36A) above, with R9A, A27K counted along it

His-AtSUF4 (full length) = His-AtSUF4 (full length) (Arabidopsis thaliana, UniProt Q9C5G0 1-367); assay: EMSA; ITC: 100 mM NaCl, 20 mM Tris-HCl pH 8.0, 25 C, 2 mM protein into 0.1 mM DNA; EMSA: LightShift kit binding buffer, 5 ug protein, 0.02 uM probe, poly(dI-dC), 25 C 30 min, 5% PAGE; details: protein: recombinant; tags: His (pET32a)
Sequence of His-AtSUF4 (full length) (Q9C5G0 whole entry): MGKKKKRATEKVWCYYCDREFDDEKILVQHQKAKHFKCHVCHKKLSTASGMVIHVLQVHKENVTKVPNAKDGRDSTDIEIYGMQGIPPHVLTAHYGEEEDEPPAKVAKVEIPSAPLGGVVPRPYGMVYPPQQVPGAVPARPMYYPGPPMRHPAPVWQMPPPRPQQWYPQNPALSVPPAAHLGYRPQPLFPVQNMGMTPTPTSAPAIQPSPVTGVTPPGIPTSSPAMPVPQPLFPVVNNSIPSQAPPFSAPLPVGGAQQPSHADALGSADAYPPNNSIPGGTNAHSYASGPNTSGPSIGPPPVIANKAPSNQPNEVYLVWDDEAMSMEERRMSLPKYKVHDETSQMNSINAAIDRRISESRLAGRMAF

Sequence of His-OsSUF4N (Q653D5 entry or part of it): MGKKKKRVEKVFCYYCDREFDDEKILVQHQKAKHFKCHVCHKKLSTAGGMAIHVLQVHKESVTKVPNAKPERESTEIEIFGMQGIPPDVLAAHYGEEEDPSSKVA

B1: Os12g21784 probe (dsDNA)
DNA 1: CTTTCTCTTCGGAAATATAAATATATACCC
DNA 2: GGGTATATATTTATATTTCCGAAGAGAAAG
**Q.** Does B1 bind (His-OsSUF4N)?
**A.** Result: binds

B2: Os05g48810 probe (dsDNA)
DNA 1: TATATTCAATGTCGGAAATCATTCCCGTAC
DNA 2: GTACGGGAATGATTTCCGACATTGAATATA
**Q.** Does B2 bind (His-OsSUF4N)?
**A.** Result: binds

B3: Os04g49660 probe (dsDNA)
DNA 1: AGGACTAATTCGGAAATCTCCCCTTCCCGT
DNA 2: ACGGGAAGGGGAGATTTCCGAATTAGTCCT
**Q.** Does B3 bind (His-OsSUF4N)?
**A.** Result: binds

B4: Os09g31486 probe (dsDNA)
DNA 1: CCACCGAAATGACGGAAATGCCCCTGGCCG
DNA 2: CGGCCAGGGGCATTTCCGTCATTTCGGTGG
**Q.** Does B4 bind (His-OsSUF4N)?
**A.** Result: binds

B5: RFT1-WT (dsDNA)
DNA 1: AGTATGAGTTTTGGAATCGGAAATATACCGAAC
DNA 2: GTTCGGTATATTTCCGATTCCAAAACTCATACT
**Q.** Does B5 bind (His-OsSUF4N)?
**A.** Result: binds

B6: Os02g08490 probe (dsDNA)
DNA 1: AGACCGTCGATTCGGAAATAAACGGGCCGG
DNA 2: CCGGCCCGTTTATTTCCGAATCGACGGTCT
**Q.** Does B6 bind (His-OsSUF4N)?
**A.** Result: binds

B7: Os12g01760 probe (dsDNA)
DNA 1: ATCATTTTTTCGGAAATATACAAATGCTGA
DNA 2: TCAGCATTTGTATATTTCCGAAAAAATGAT
**Q.** Does B7 bind (His-OsSUF4N)?
**A.** Result: binds

B8: ITC 16-bp DNA (dsDNA)
DNA 1: GGGTACGGAAATGGTA
DNA 2: TACCATTTCCGTACCC
**Q.** Does B8 bind (OsSUF4 ZF K36A)?
**A.** Result: no binding

**Q.** Does B8 bind (OsSUF4 ZF K33A)?
**A.** Result: no binding

**Q.** And the Kd [1]?
**A.** The Kd was 51.3 ± 3.68 µM.

**Q.** Does B8 bind (OsSUF4 ZF K31A)?
**A.** Result: no binding

**Q.** Does B8 bind (OsSUF4 ZF K43A)?
**A.** Result: no binding

**Q.** Does B8 bind (OsSUF4 ZF K24A)?
**A.** Result: no binding

**Q.** Does B8 bind (OsSUF4 ZF 4m)?
**A.** Result: no binding

**Q.** Does B8 bind (OsSUF4 ZF R18A)?
**A.** Result: no binding

B9: Os06g06490 probe (dsDNA)
DNA 1: ATATTTTTTCGCGGAAATTCGGTCTTCACT
DNA 2: AGTGAAGACCGAATTTCCGCGAAAAAATAT
**Q.** Does B9 bind (His-OsSUF4N)?
**A.** Result: binds

B10: Hd3a-mu8 (dsDNA)
DNA 1: ACAGTTAACTAACGGCCTAAGGGGGGTATAAA
DNA 2: TTTATACCCCCCTTAGGCCGTTAGTTAACTGT
**Q.** Does B10 bind (His-OsSUF4N)?
**A.** Result: no binding

B11: Hd3a-e (Hd3a-WT) (dsDNA)
DNA 1: ACAGTTAACTAACGGTACGGAAATGGTATAAA
DNA 2: TTTATACCATTTCCGTACCGTTAGTTAACTGT
**Q.** Does B11 bind (His-AtSUF4 (full length))?
**A.** Result: no binding
